How the values were obtained:
CHO cells = test: Fluorescence spectroscopy of CHO cells expressing GFP; assay type: cell-based, chinese hamster; conditions: 2 mM sodium butyrate, 'wt' construct
Protocol: The wildtype and the cycle 2 and 3 mutant versions of the GFP gene were transferred into the eukaryotic expression vector Alpha+ (16) as an EcoRI-XbaI fragment. The plasmids were transfected into CHO cells by electroporation of 10^7 cells in 0.8 ml with 40 μg of plasmed at 400V and 250 μF. Transformants were selected using 1 mg/ml G418 for 10-12 days.
Improvements in autonomous characteristics such as self-folding can be tranferable to different cellular environments. After being selected in bacteria, the ‘cycle 3’ mutant GFP was transferred into the eukaryotic Alpha+ vector and expressed in chinese hamster ovary cells (CHO). […] FACS sorting confirmed that the average fluorescence signal of CHO cell clones expressing ‘cycle 3’ was 46-fold greater than cells expressing the ‘wt’ construct (FIG. 18B).

E. coli XL1-blue cells = test: Minimum inhibitory concentration (MIC) of cefotaxime by plating on cefotaxime plates; assay type: cell-based
Protocol: The minimum inhibitory concentration (MIC) of cefotaxime on bacterial cells lacking a plasmid was determined by plating 10 μl of a 10^−2 dilution of an overnight bacterial culture (about 1000 cfu) of E. coli XL1-blue cells (Stratagene, San Diego Calif.) on plates with varying levels of cefotaxime (Sigma, St. Louis Mo.), followed by incubation for 24 hours at 37° C.
Growth on cefotaxime is sensitive to the density of cells, and therefore similar numbers of cells needed to be plated on each plate (obtained by plating on plain LB plates). Platings of 1000 cells were consistently performed.
Growth on cefotaxime is dependent on the cell density, requiring that all the MICs be standardized (in our case to about 1,000 cells per plate). […] The 5 largest colonies grown at […] were plated for single colonies twice, and the Sfi1 inserts were analyzed by restriction mapping of the colony PCR products.
After selection, the plasmid of selected clones was transferred back into wild-type E. coli XL1-blue cells (Stratagene, San Diego Calif.) to ensure that none of the measured drug resistance was due to chromosomal mutations.

Row | Molecule | increase of the fluorescence signal (CHO cells) | minimum inhibitory concentration of cefotaxime (E. coli XL1-blue cells; 24 hours at 37° C., about 1,000 cells per plate) | MIC (E. coli XL1-blue cells; cefotaxime, mutants in identical plasmid background pUC182Sfi, no literature source in table)
1 | CCCC(=O)[O-].[Na+] [sodium butyrate] | 4-8 fold |  | 
2 | TEM-1: wild-type bacterial TEM-1 betalactamase, gene on a pUC18 derivative (protein, UniProt P62593 24-286, looked up) Beta-lactamase TEM: HPETLVKVKDAEDQLGARVGYIELDLNSGKILESFRPEERFPMMSTFKVLLCGAVLSRVDAGQEQLGRRIHYSQNDLVEYSPVTEKHLTDGMTVRELCSAAITMSDNTAANLLLTTIGGPKELTAFLHNMGDHVTRLDRWEPELNEAIPNDERDTTMPAAMATTLRKLLTGELLTLASRQQLIDWMEADKVAGPLLRSALPAGWFIADKSGAGERGSRGIIAALGPDGKPSRIVVIYTTGSQATMDERNRQIAEIGASLIKHW |  | approximately 0.02 μg/ml | 0.02 µg/mL

From patent US7868138B2, “Methods for generating polynucleotides having desired characteristics by iterative selection and recombination” (priority 1994, dated 2011)
